Measured values from patent US20230322953A1 (HARBOUR BIOMED SHANGHAI, published 2023).

T1: biotinylated human BCMA-Fc, Avitag recombinant protein (ACRO Biosystems, #BC7-H82F0) (human, UniProt Q02223 1-54, biotinylated (Avitag))
T1 construct: extracellular domain; Bought protein; also called huBCMA.Fc; recombinant human BCMA-ECD-Fc
T1 sequence (looked up): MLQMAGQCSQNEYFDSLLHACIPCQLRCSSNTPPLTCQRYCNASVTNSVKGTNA

B1: PR000274, anti-BCMA monoclonal antibody CA8-J6M0 (antibody, human IgG1, kappa, V domains shown)
VH: QVQLVQSGAEVKKPGSSVKVSCKASGGTFSNYWMHWVRQAPGQGLEWMGATYRGHSDTYYNQKFKGRVTITADKSTSTAYMELSSLRSEDTAVYYCARGAIYDGYDVLDNWGQGTLVTVSS
VL: DIQMTQSPSSLSASVGDRVTITCSASQDISNYLNWYQQKPGKAPKLLIYYTSNLHSGVPSRFSGSGSGTDFTLTISSLQPEDFATYYCQQYRKLPWTFGQGTKLEIKR
notes: also called Positive control 1; CA8-J6M0 hIgG1
B2: PR001046, anti-BCMA HCAb antibody (clone 1005P63B7) (antibody, human IgG1, V domains shown)
VH: EVQLVETGGGLIQPGGSLRLSCAASGFTVSDNYMTWVRQAPGKGLEWVSVIFSGGNTYYADSVKGRFTISRDNAKNTLYLQMNSLRAEDTALYYCARRNYDDTRGTDVFDIWGQGTMVTVSS
B3: PR002929 (bispecific antibody, human IgG1, lambda, L234A L235A)
light: QAVVTQEPSLTVSPGGTVTLTCRSSTGAVTTSNYANWVQQKPGQAPRGLIGGTNKRAPWTPARFSGSLLGDKAALTLLGAQPEDEAEYFCALWYSNLWVFGGGTKLTVLGQPKAAPSVTLFPPSSEELQANKATLVCLISDFYPGAVTVAWKADSSPVKAGVETTTPSKQSNNKYAASSYLSLTPEQWKSHRSYSCQVTHEGSTVEKTVAPTECS
heavy: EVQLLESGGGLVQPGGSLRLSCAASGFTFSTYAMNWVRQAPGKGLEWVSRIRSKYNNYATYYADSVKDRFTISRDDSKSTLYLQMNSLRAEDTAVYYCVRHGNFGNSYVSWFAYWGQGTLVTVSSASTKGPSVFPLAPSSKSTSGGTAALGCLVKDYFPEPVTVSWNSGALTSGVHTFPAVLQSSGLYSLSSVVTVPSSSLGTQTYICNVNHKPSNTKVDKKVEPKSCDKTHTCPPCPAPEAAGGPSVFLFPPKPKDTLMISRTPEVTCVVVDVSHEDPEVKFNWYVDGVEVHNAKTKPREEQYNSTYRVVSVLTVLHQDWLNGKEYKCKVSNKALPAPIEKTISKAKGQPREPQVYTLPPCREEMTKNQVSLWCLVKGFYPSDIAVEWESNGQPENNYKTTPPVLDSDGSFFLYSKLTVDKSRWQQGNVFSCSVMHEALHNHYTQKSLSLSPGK
chain: EVQLVETGGGLIQPGGSLRLSCAASGFTVSDNYMTWVRQAPGKGLEWVSVIFSGGNTYYADSVKGRFTISRDNAKNTLYLQMNSLRAEDTALYYCARRNYDDTRGTDVFDIWGQGTMVTVSSASEPKSSDKTHTCPPCPAPEAAGGPSVFLFPPKPKDTLMISRTPEVTCVVVDVSHEDPEVKFNWYVDGVEVHNAKTKPREEQYNSTYRVVSVLTVLHQDWLNGKEYKCKVSNKALPAPIEKTISKAKGQPREPQVCTLPPSREEMTKNQVSLSCAVKGFYPSDIAVEWESNGQPENNYKTTPPVLDSDGSFFLVSKLTVDKSRWQQGNVFSCSVMHEALHNHYTQKSLSLSPGK

Experiments:
[1] = target: T2, cynomolgus monkey BCMA (ACRO Biosystems, #BCA-C82F4) (cynomolgus monkey, UniProt A0A2K5UD97 1-53); assay: BLI (Octet Red96e), cyBCMA.Fc on SA sensor, 1:1 global fitting
T2 construct: Bought protein; also called cyBCMA.Fc
T2 sequence (A0A2K5UD97 entry or part of it): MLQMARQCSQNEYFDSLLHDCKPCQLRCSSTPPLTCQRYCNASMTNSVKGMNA

[2] = target: T2, cynomolgus monkey BCMA (ACRO …); assay: BLI; KD for cynomolgus monkey BCMA divided by KD for human BCMA
[3] = target: T1, biotinylated human BCMA-Fc, Avitag …; assay: BLI (Octet Red96e), biotinylated BCMA-Fc on SA sensor, 1:1 global fitting;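 also: Anti-BCMA antibodies analysed as binding partners of the captured BCMA antigen, with reference signals removed by double referencing before kinetic fitting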
[4] = target: T3, cynomolgus monkey CD3 (TCR/CD3 complex) on cynomolgus monkey T cells (cynomolgus monkey); assay: flow cytometry (FACS) on cynomolgus monkey T cells
T3 construct: whole, on cells
T3 sequence (Q95LI5 22-198, one chain of several): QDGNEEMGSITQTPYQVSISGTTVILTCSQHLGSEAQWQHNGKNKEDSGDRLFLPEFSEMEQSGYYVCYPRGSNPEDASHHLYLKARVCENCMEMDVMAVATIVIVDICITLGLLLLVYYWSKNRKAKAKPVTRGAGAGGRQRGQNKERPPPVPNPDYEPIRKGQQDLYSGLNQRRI

[5] = target: T4, human CD3 (TCR/CD3 complex) on human T cells (human, UniProt P07766 23-207); assay: flow cytometry (FACS) on human T cells, Experiment 3
T4 construct: whole, on cells
T4 sequence (P07766 23-207, one chain of several): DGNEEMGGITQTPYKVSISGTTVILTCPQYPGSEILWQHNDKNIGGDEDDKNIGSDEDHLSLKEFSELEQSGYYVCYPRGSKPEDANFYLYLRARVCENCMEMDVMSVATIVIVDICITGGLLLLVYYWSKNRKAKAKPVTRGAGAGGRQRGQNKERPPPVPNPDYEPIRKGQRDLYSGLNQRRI

Binder	Kd [1] [nM]	koff [1] [s⁻¹]	kon [1] [M⁻¹ s⁻¹]	KD ratio (cy BCMA/hu BCMA) [2]	Kd [3] [nM]	koff [3] [s⁻¹]	kon [3] [M⁻¹ s⁻¹]	Maximum MFI [4] [MFI]	Maximum MFI [5] [MFI]
B1	0.0388	7.76e-06	200000	0.06	0.655	0.000135	206000	–	–
B2	0.119	7.54e-05	633000	1.54	0.0775	3.56e-05	459000	–	–
B3	6.62	0.00582	879000	1.11	5.95	0.00148	249000	10100	283000
